PMC5859912 (ACS Chemical Biology, 2018)

Legend:
[1] = molecular target: PCY1:S562A (Saponaria vaccaria) (UniProt R4P353); assay: ITC
PCY1 = type: biochemical, Saponaria vaccaria; conditions: LC/MS (ion count); 30 °C; pH 8.5
PCY1:S562A = molecular target: T1, PCY1:S562A (Saponaria vaccaria, UniProt R4P353 1-724, S562A); assay: ITC
T1 sequence: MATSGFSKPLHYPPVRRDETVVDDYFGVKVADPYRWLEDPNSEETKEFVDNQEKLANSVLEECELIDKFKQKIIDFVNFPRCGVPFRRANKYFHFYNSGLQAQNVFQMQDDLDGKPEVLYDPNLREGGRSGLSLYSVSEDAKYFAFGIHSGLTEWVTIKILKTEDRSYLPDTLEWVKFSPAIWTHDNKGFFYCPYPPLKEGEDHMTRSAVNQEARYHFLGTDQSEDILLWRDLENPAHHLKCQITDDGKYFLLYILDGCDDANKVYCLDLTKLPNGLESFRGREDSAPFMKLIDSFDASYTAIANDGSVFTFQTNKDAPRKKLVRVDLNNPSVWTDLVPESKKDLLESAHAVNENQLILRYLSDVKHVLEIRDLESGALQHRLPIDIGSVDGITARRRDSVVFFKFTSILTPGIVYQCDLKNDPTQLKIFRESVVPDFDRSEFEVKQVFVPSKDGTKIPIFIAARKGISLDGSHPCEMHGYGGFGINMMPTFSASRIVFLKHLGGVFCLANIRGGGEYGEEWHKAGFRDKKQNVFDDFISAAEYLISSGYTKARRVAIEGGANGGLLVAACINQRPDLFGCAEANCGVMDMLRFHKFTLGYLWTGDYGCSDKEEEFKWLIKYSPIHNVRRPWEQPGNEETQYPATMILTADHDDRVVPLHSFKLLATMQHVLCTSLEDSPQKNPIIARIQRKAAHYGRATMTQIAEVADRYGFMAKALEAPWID

Molecule	Kd [1] [nM]	other results
presegetalin D1 (peptide)	250	–
presegetalin A1 (peptide)	173	–
presegetalin F1 (peptide)	136	–
presegetalin B1 (peptide)	238	–
FSASYSSKP FQA	–	kcat/Km (PCY1): 1200 s^–1 M^–1
DNASAPV	–	Kd (PCY1:S562A): 9580 ± 580 nM
